US20250206828A1, “ANTI-ADENOSINE RECEPTOR (A2aR) ANTIBODIES AND THE USE THEREOF” (Adept Therapeutics Inc., priority 2022, published 2025)
Like-named read-outs stand apart in the source and are kept apart here.

What was measured:
[1] = molecular target: T1, human adenosine A2A receptor (A2aR) (human, UniProt P29274 1-412); test: flow cytometry, HEK293-hA2aR cells, supernatant 1 ug/ml
T1 construct: Assays used HEK293 cells stably overexpressing human A2aR (BPS Bioscience 79381), human A2aR-expressing CHO cells, or endogenous A2aR on human PBMC; also called human A2aR; hA2aR
T1 sequence (P29274 whole entry): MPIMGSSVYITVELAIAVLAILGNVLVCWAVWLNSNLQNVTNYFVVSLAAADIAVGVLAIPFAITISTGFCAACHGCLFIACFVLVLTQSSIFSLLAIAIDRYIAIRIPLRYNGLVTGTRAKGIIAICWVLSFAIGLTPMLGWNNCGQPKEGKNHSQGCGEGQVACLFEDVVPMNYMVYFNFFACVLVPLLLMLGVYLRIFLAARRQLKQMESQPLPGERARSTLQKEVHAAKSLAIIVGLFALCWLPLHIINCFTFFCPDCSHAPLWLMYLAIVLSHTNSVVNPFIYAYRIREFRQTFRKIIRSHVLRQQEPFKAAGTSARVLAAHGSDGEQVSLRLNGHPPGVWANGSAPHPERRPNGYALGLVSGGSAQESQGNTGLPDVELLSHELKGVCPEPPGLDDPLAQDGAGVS

[2] = molecular target: T1, human adenosine A2A receptor (A2aR); test: flow cytometry titration, HEK293-hA2aR cells, purified antibody
[3] = molecular target: T1, human adenosine A2A receptor (A2aR); test: flow cytometry, HEK293-hA2aR cells, supernatant 1 ug/ml; remark: listed apart in the source
[4] = molecular target: human A2aR (Homo sapiens, UniProt P29274); test: Binding of humanized anti-A2aR antibodies in transfected Expi293F cell supernatant to human A2aR on HEK293 cells (FACS, MFI); details: supernatant normalized to 1 μg/ml antibody; HEK293 cells stably overexpressing human A2aR; greater MFI = stronger binding; parental value average of triplicate
Chain of human A2aR (P29274 whole entry): as above
Method: Briefly, HEK293 cells that stably overexpress human A2aR (HEK-hA2aR OCL, BPS Bioscience, Cat. 79381) were collected from fresh culture. Cells were then resuspended in FACS buffer (1×DPBS/1% FBS) at 10^6/ml concentration. One hundred microliters (100 μl) of cells were aliquoted into each well of a 96 well plates. After centrifugation, cell pellets in each well were then resuspended with 100 μl normalized supernatant samples containing 1 μg/ml humanized anti-A2aR monoclonal antibody variants collected from transfected Expi293 cell culture. The supernatants were mixed with the cells and incubated on ice for 1 hours. After washing the mixtures of the supernatants containing expressed antibodies and the A2aR-expressing cells with FACS buffer, one hundred microliters (100 μl) of 1:400 diluted PE-conjugated anti-human Fc secondary antibody (Jackson Immuno Research, Cat. 109-116-098) was added to each well followed by an incubation for 30 minutes on ice. After washes with FACS buffer, stained cells were resuspended in 150 μl of 7-AAD (Biolegend, Cat. 420404) diluted 1:100 in 1×DPBS buffer and incubate for 5 minutes in the dark at room temperature before FACS analysis. The mean fluorescence intensity (MFI) was obtained using Guava 11HT or 5HT (Luminex). Data was analyzed using Flowjo software.
As shown in Tables 22-24, exemplary humanized anti-A2aR antibodies bind to A2aR expressed on a cell surface. A greater MFI value means stronger binding of the exemplary antibody to A2aR expressed on a cell surface.

MFI [1] [MFI] | EC50 [2] [nM] | MFI [3] [MFI] | Molecule | further results
1710 | 0.76 | – | Hu3F6-H2/Hu3F6-L8 (antibody, human IgG1, V domains shown, Human IgG1 FES (L234F, L235E, P331S) and human Ig kappa constant domains; also called Hu3F6 VH2/VL8) VH: EVQLVQSGAEVKKPGASVKVSCKTSGFAFTSYWMNWVRQAPGQGLEWMGRIDPSDSEAHYHHKFWGRVTMTVDTSTSTVYMELSSLRSEDTAVYYCLRSLYGKGDYWGHGTTVTVSS VL: DVVMTQSPLSLPVTPGEPASISCRSSQSLVHRNGNTYLEWYLQKPGQSPQLLIYKVSNRFSGVPDRFSGSGSGTDFTLKISRVEAEDVGVYYCYQGSHVPLTFGGGTKVEIK | –
– | – | 10 | Hu3F8-H1/Hu3F8-L2 (antibody, human IgG1, V domains shown, Human IgG1 FES (L234F, L235E, P331S) and human Ig kappa constant domains) VH: QVQLVQSGAEVKKPGASVKVSCKASGFTFTRYWMNWVRQAPGQGLEWMGRIDPSDSETHYNHKFWGRVTMTRDTSTSTVYMELSSLRSEDTAVYYCLRSLYGKGDYWGQGTTVTVSS VL: DVVMTQSPLSLPVTLGQPASISCRSSQSIVHSNGNTYLEWYQQRPGQSPRRLIYKVSNRFSGVPDRFSGSGSGTDFTLKISRVEAEDVGVYYCYQGSHVPLTFGGGTKVEIK | –
– | – | 1750 | Hu3F8-H1/Hu3F8-L4 (antibody, human IgG1, V domains shown, Human IgG1 FES (L234F, L235E, P331S) and human Ig kappa constant domains) VH: QVQLVQSGAEVKKPGASVKVSCKASGFTFTRYWMNWVRQAPGQGLEWMGRIDPSDSETHYNHKFWGRVTMTRDTSTSTVYMELSSLRSEDTAVYYCLRSLYGKGDYWGQGTTVTVSS VL: DIVMTQSPLSLPVTPGEPASISCRSSQSIVHSNGNTYLEWYLQKPGQSPQLLIYKVSNRFSGVPDRFSGSGSGTDFTLKISRVEAEDVGVYYCYQGSHVPLTFGGGTKVEIK | –
– | 0.62 | – | Hu3F8-H5.1/Hu3F8-L3 (antibody, human IgG1, V domains shown, Human IgG1 FES (L234F, L235E, P331S) and human Ig kappa constant domains; also called Hu3F8 VH5.1/VL3) VH: EVQLVQSGAEVKKPGASVKVSCKASGFTFTRYWMNWVRQAPGQGLEWIGRIDPSDSETHYAHKFWGRATLTVDKSTSTVYMELSSLRSEDTAVYYCLRSLYGKGDYWGQGTTVTVSS VL: DVVMTQSPLSLPVTLGQPASISCRSSQSIVHSNGNTYLEWYQQRPGQSPRLLIYKVSNRFSGVPDRFSGSGSGTDFTLKISRVEAEDVGVYYCYQGSHVPLTFGGGTKVEIK | –
– | – | 1780 | Hu3F8-H2/Hu3F8-L4 (antibody, human IgG1, V domains shown, Human IgG1 FES (L234F, L235E, P331S) and human Ig kappa constant domains) VH: EVQLVQSGAEVKKPGASVKVSCKASGFTFTRYWMNWVRQAPGQGLEWMGRIDPSDSETHYNHKFWGRVTMTVDTSTSTVYMELSSLRSEDTAVYYCLRSLYGKGDYWGQGTTVTVSS VL: DIVMTQSPLSLPVTPGEPASISCRSSQSIVHSNGNTYLEWYLQKPGQSPQLLIYKVSNRFSGVPDRFSGSGSGTDFTLKISRVEAEDVGVYYCYQGSHVPLTFGGGTKVEIK | –

The next lines start with the molecule.

Molecule | MFI [1] [MFI] | EC50 [2] [nM] | MFI [3] [MFI] | further results
Hu3F8-H6/Hu3F8-L2 (antibody, human IgG1, V domains shown, Human IgG1 FES (L234F, L235E, P331S) and human Ig kappa constant domains) VH: EVQLVQSGAEVKKPGESLRISCKASGFTFTRYWMNWVRQMPGKGLEWIGRIDPSDSETHYNHKFWGHATLSVDKSSSTVYLQWSSLKASDTAMYYCLRSLYGKGDYWGQGTTVTVSS VL: DVVMTQSPLSLPVTLGQPASISCRSSQSIVHSNGNTYLEWYQQRPGQSPRRLIYKVSNRFSGVPDRFSGSGSGTDFTLKISRVEAEDVGVYYCYQGSHVPLTFGGGTKVEIK | – | – | 285 | –
Hu1B5-H4/Hu1B5-L1: humanized anti-A2aR IgG1 FES antibody; HCVR SEQ ID NO:55, LCVR SEQ ID NO:71 (antibody, V domains shown, IgG1 FES constant regions) VH: EVQLVQSGAEVKKPGASVKVSCKTSGFTFTRFWMNWVRQAPGQGLEWIGRIDPYDSETQYNHKFWDRATLTVDKSSSTVYMELSSLRSEDTAVYYCGRSLYGKGDYWGQGTTVTVSS VL: DVVMTQSPLSLPVTLGQPASISCRSSQSIVHSNGNTYLEWFQQRPGQSPRRLIYKVSNRFSGVPDRFSGSGSGTDFTLKISRVEAEDVGVYYCFQGSHVPLTFGGGTKVEIK | – | – | – | binding to human A2aR on cell surface, mean fluorescence intensity (MFI) [4]: 182
Hu1B5-H5/Hu1B5-L1: humanized anti-A2aR IgG1 FES antibody; HCVR SEQ ID NO:56, LCVR SEQ ID NO:71 (antibody, V domains shown, IgG1 FES constant regions) VH: EVQLVQSGAEVKKPGASVKVSCKTSGFTFTRFWMNWVRQAPGQGLEWIGRIDPYDSETQYAHKFWDRATLTVDKSSSTVYMELSSLRSEDTAVYYCGRSLYGKGDYWGQGTTVTVSS VL: DVVMTQSPLSLPVTLGQPASISCRSSQSIVHSNGNTYLEWFQQRPGQSPRRLIYKVSNRFSGVPDRFSGSGSGTDFTLKISRVEAEDVGVYYCFQGSHVPLTFGGGTKVEIK | – | – | – | binding to human A2aR on cell surface, mean fluorescence intensity (MFI) [4]: 82
Hu3F6-H2/Hu3F6-L4 (antibody, human IgG1, V domains shown, Human IgG1 FES (L234F, L235E, P331S) and human Ig kappa constant domains; also called Hu3F6 VH2/VL4) VH: EVQLVQSGAEVKKPGASVKVSCKTSGFAFTSYWMNWVRQAPGQGLEWMGRIDPSDSEAHYHHKFWGRVTMTVDTSTSTVYMELSSLRSEDTAVYYCLRSLYGKGDYWGHGTTVTVSS VL: DIVMTQTPLSLSVTPGQPASISCRSSQSLVHRNGNTYLEWYLQKPGQSPQLLIYKVSNRFSGVPDRFSGSGSGTDFTLKISRVEAEDVGVYYCYQGSHVPLTFGGGTKVEIK | 1590 | 0.68 | – | –
Hu3F6-H2/Hu3F6-L5 (antibody, human IgG1, V domains shown, Human IgG1 FES (L234F, L235E, P331S) and human Ig kappa constant domains; also called Hu3F6 VH2/VL5) VH: EVQLVQSGAEVKKPGASVKVSCKTSGFAFTSYWMNWVRQAPGQGLEWMGRIDPSDSEAHYHHKFWGRVTMTVDTSTSTVYMELSSLRSEDTAVYYCLRSLYGKGDYWGHGTTVTVSS VL: DVVMTQTPLSLSVTPGQPASISCRSSQSLVHRNGNTYLEWYLQKPGQSPQLLIYKVSNRFSGVPDRFSGSGSGTDFTLKISRVEAEDVGVYYCYQGSHVPLTFGGGTKVEIK | 1790 | 0.53 | – | –
Hu3F6-H2/Hu3F6-L3 (antibody, human IgG1, V domains shown, Human IgG1 FES (L234F, L235E, P331S) and human Ig kappa constant domains; also called Hu3F6 VH2/VL3) VH: EVQLVQSGAEVKKPGASVKVSCKTSGFAFTSYWMNWVRQAPGQGLEWMGRIDPSDSEAHYHHKFWGRVTMTVDTSTSTVYMELSSLRSEDTAVYYCLRSLYGKGDYWGHGTTVTVSS VL: DVVMTQSPLSLPVTLGQPASISCRSSQSLVHRNGNTYLEWYQQRPGQSPRLLIYKVSNRFSGVPDRFSGSGSGTDFTLKISRVEAEDVGVYYCYQGSHVPLTFGGGTKVEIK | 1830 | 0.65 | – | –
Hu1B5-H3/Hu1B5-L1: humanized anti-A2aR IgG1 FES antibody; HCVR SEQ ID NO:54, LCVR SEQ ID NO:71 (antibody, V domains shown, IgG1 FES constant regions) VH: EVQLVQSGAEVKKPGASVKVSCKTSGFTFTRFWMNWVRQAPGQGLEWIGRIDPYDSETQYNHKFWDRATLTVDTSSSTVYMELSSLRSEDTAVYYCGRSLYGKGDYWGQGTTVTVSS VL: DVVMTQSPLSLPVTLGQPASISCRSSQSIVHSNGNTYLEWFQQRPGQSPRRLIYKVSNRFSGVPDRFSGSGSGTDFTLKISRVEAEDVGVYYCFQGSHVPLTFGGGTKVEIK | – | – | – | binding to human A2aR on cell surface, mean fluorescence intensity (MFI) [4]: 152
Hu3F8-H1/Hu3F8-L1 (antibody, human IgG1, V domains shown, Human IgG1 FES (L234F, L235E, P331S) and human Ig kappa constant domains) VH: QVQLVQSGAEVKKPGASVKVSCKASGFTFTRYWMNWVRQAPGQGLEWMGRIDPSDSETHYNHKFWGRVTMTRDTSTSTVYMELSSLRSEDTAVYYCLRSLYGKGDYWGQGTTVTVSS VL: DVVMTQSPLSLPVTLGQPASISCRSSQSIVHSNGNTYLEWFQQRPGQSPRRLIYKVSNRFSGVPDRFSGSGSGTDFTLKISRVEAEDVGVYYCYQGSHVPLTFGGGTKVEIK | – | – | 9 | –
Hu3F8-H5.1/Hu3F8-L5 (antibody, human IgG1, V domains shown, Human IgG1 FES (L234F, L235E, P331S) and human Ig kappa constant domains; also called Hu3F8 VH5.1/VL5) VH: EVQLVQSGAEVKKPGASVKVSCKASGFTFTRYWMNWVRQAPGQGLEWIGRIDPSDSETHYAHKFWGRATLTVDKSTSTVYMELSSLRSEDTAVYYCLRSLYGKGDYWGQGTTVTVSS VL: DVVMTQSPLSLPVTPGEPASISCRSSQSIVHSNGNTYLEWYLQKPGQSPQLLIYKVSNRFSGVPDRFSGSGSGTDFTLKISRVEAEDVGVYYCYQGSHVPLTFGGGTKVEIK | – | 0.69 | – | –
Hu3F6-H3/Hu3F6-L8 (antibody, human IgG1, V domains shown, Human IgG1 FES (L234F, L235E, P331S) and human Ig kappa constant domains; also called Hu3F6 VH3/VL8) VH: EVQLVQSGAEVKKPGASVKVSCKTSGFAFTSYWMNWVRQAPGQGLEWIGRIDPSDSEAHYHHKFWGRATLTVDTSSSTVYMELSSLRSEDTAVYYCLRSLYGKGDYWGHGTTVTVSS VL: DVVMTQSPLSLPVTPGEPASISCRSSQSLVHRNGNTYLEWYLQKPGQSPQLLIYKVSNRFSGVPDRFSGSGSGTDFTLKISRVEAEDVGVYYCYQGSHVPLTFGGGTKVEIK | 1830 | 0.76 | – | –
Hu3F8-H2/Hu3F8-L1 (antibody, human IgG1, V domains shown, Human IgG1 FES (L234F, L235E, P331S) and human Ig kappa constant domains) VH: EVQLVQSGAEVKKPGASVKVSCKASGFTFTRYWMNWVRQAPGQGLEWMGRIDPSDSETHYNHKFWGRVTMTVDTSTSTVYMELSSLRSEDTAVYYCLRSLYGKGDYWGQGTTVTVSS VL: DVVMTQSPLSLPVTLGQPASISCRSSQSIVHSNGNTYLEWFQQRPGQSPRRLIYKVSNRFSGVPDRFSGSGSGTDFTLKISRVEAEDVGVYYCYQGSHVPLTFGGGTKVEIK | – | – | 16 | –
